US20150266977A1 (AbbVie / Abbott, published 2015)

Legend:
[1] = target: T1, recombinant human TNF-α (human, UniProt P01375 77-233); assay: SPR
T1 construct: also called huTNF; Human TNFa

[2] = target: T2, recombinant human sclerostin (human, UniProt Q9BQB4 24-213); assay: SPR
T2 construct: biotinylated in the ELISAs; also called hu sclerostin; hu scl
T2 sequence: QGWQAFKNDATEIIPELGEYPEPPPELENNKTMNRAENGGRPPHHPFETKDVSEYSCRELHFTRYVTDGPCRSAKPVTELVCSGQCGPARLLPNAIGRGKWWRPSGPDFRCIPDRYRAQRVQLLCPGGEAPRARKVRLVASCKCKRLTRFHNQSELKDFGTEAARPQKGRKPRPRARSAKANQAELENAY

[3] = target: Rhesus/cynoTNFa (Rhesus/cyno); assay: cell-based or functional assay
Chain of Rhesus/cynoTNFa (Rhesus/cyno) (P48094 whole entry): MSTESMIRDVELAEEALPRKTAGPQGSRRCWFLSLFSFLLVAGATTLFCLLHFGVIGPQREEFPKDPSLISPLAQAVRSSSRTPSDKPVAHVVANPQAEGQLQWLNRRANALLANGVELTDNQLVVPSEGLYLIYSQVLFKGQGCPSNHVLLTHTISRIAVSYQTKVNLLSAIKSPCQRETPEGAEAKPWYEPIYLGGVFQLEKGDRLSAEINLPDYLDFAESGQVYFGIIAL

[4] = target: T1, recombinant human TNF-α; assay: cell-based or functional assay
[5] = target: T2, recombinant human sclerostin; assay: direct bind ELISA
[6] = target: T1, recombinant human TNF-α; assay: cell-based or functional assay; remark: listed apart in the source
[7] = target: T3, recombinant cynomolgus monkey sclerostin (cynomolgus monkey); assay: SPR
T3 construct: also called cyno sclerostin; Cyno sclerostin

T1 sequence (P01375 77-233 limits assumed): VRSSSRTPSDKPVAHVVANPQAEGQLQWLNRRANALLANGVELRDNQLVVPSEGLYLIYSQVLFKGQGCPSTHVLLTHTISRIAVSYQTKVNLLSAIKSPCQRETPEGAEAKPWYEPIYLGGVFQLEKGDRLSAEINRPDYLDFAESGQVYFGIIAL

B1: MAK199-1-SS-AE10-6 AM7 (bispecific antibody, human IgG1, lambda, L234A L235A)
heavy: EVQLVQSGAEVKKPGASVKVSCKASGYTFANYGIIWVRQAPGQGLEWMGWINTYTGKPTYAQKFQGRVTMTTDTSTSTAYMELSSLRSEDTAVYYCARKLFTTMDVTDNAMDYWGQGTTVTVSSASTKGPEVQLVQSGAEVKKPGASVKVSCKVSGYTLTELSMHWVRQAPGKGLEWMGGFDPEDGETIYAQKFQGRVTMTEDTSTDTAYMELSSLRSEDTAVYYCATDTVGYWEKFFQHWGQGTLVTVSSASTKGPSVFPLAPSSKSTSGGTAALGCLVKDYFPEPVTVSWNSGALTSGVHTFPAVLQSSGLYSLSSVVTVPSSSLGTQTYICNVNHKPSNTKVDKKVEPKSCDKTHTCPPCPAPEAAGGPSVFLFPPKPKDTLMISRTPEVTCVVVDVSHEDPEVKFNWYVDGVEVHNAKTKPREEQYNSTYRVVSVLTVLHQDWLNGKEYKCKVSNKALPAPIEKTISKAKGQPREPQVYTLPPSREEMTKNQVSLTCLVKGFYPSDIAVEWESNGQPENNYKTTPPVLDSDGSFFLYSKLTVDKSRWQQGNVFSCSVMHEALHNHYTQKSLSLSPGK
light: DIQMTQSPSSLSASVGDRVTITCRASQDISQYLNWYQQKPGKAPKLLIYYTSRLQSGVPSRFSGSGSGTDFTLTISSLQPEDFATYFCQQGNTWPPTFGQGTKLEIKRTVAAPQAVVTQEPSLTVSPGGTVTLTCGSSTGTVTIDHYPYWFQQKPGQAPRTLISDTDDKHSWTPARFSGSLLGGKAALTLSGAQPEDEAEYYCLLDYGGRFVFGGGTKLTVLGQPKAAPSVTLFPPSSEELQANKATLVCLISDFYPGAVTVAWKADSSPVKAGVETTTPSKQSNNKYAASSYLSLTPEQWKSHRSYSCQVTHEGSTVEKTVAPTECS
notes: DVD-Ig: outer MAK199-1, inner AE10-6 AM7
- Kd [1]: 0.017 nM
- koff [1]: 4.4e-05 s⁻¹
- kon [1]: 2.6e+06 M⁻¹ s⁻¹
- Kd [2]: 0.052 nM
- koff [2]: 8.3e-06 s⁻¹
- kon [2]: 160000 M⁻¹ s⁻¹
- L929 TNF neutralization IC50 [3]: 0.0569 nM
- L929 TNF neutralization IC50 [4]: 0.0581 nM

B2: MSK21 (antibody, V domains shown)
VH: EVQLQQSGPGLVKPSQTLSLTCAISGDSVSSNIVAWNWIRQSPSRGLEWLGRTYYTSKWFNQYAMSVKSRITINPDTSKNQVSLKLSSVTAADTAAYYCARVGGTYDFWSGYYRPYYYGMDVWGQGTMVTVSS
VL: DIRLTQSPSSLSASIGDTVTISCRSSQPINTHLNWFRQLPGRAPELLIYGSSSLHTGVPSRFSGSGSGTDFTLTITSLQRGDFLTYYCQQTHRLPITFGQGTRLDIKR
notes: fully human mAb
- binding result [5]: binds

B3: MSK9 (antibody, V domains shown)
VH: EVQLLESGGGLVQPGGSLRLSCAASGFTFRSYWMSWVRQAPGKGLEWVASIKQDGSKKHYADSVKDRFIISRDNAKKSLSLQMKRMRAEDTAVYYCAADLNPHWLVGWGQGTLVTVSS
VL: DIVMTQTPLSLPVTPGEPASISCRSSQSLLHSNGYNYLDWYLQKPGQSPQLLIYLGSKRASGVPDRFSGSGSGTDFTLKISRVGAEDVGVYYCMQGLQTPKAFGPGTKVDIKR
notes: fully human mAb
- binding result [5]: binds

B4: MAK199-1-GS-AE10-6 AM7 (bispecific antibody, human IgG1, lambda, L234A L235A)
heavy: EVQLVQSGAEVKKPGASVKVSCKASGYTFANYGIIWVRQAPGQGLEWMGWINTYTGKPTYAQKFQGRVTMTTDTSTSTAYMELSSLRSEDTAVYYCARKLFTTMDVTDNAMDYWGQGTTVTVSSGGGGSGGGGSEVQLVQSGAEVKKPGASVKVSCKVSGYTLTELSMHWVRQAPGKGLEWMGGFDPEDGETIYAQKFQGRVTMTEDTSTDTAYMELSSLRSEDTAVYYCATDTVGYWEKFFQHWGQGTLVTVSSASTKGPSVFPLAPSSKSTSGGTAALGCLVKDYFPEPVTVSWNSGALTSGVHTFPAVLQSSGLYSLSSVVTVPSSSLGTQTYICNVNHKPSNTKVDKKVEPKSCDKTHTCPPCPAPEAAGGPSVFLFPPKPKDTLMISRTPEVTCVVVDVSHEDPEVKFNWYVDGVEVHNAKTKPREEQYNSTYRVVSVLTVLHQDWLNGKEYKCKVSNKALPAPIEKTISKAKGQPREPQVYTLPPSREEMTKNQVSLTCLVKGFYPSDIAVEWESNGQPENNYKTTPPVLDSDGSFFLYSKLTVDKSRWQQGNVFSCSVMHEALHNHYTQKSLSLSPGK
light: DIQMTQSPSSLSASVGDRVTITCRASQDISQYLNWYQQKPGKAPKLLIYYTSRLQSGVPSRFSGSGSGTDFTLTISSLQPEDFATYFCQQGNTWPPTFGQGTKLEIKRGGSGGGGSGQAVVTQEPSLTVSPGGTVTLTCGSSTGTVTIDHYPYWFQQKPGQAPRTLISDTDDKHSWTPARFSGSLLGGKAALTLSGAQPEDEAEYYCLLDYGGRFVFGGGTKLTVLGQPKAAPSVTLFPPSSEELQANKATLVCLISDFYPGAVTVAWKADSSPVKAGVETTTPSKQSNNKYAASSYLSLTPEQWKSHRSYSCQVTHEGSTVEKTVAPTECS
notes: DVD-Ig: outer MAK199-1, inner AE10-6 AM7; also called MAK199-1-GS-AM10-6 AM7; MAK199-1GSAM10-6 AM7
- L929 TNF neutralization IC50 with 50 nM SOST [6]: 0.036 nM
- L929 TNF neutralization IC50 without 50 nM SOST [6]: 0.025 nM
- Kd [7]: < 0.00011 nM
- koff [7]: < 1e-06 s⁻¹
- kon [7]: 9.3e+06 M⁻¹ s⁻¹
- Kd [1]: 0.027 nM
- koff [1]: 5.8e-05 s⁻¹
- kon [1]: 2.1e+06 M⁻¹ s⁻¹
- Kd [2]: 0.00039 nM
- koff [2]: 2.3e-06 s⁻¹
- kon [2]: 5.9e+06 M⁻¹ s⁻¹
- L929 TNF neutralization IC50 [3]: 0.042 nM
- L929 TNF neutralization IC50 [4]: 0.0677 nM

B5: MSK13 (antibody, V domains shown)
VH: EMQLVQSGAEVKKPGASVKVSCKASGYTFSGYYMNWVRQAPGQGLEWMGWINPYSGAATYAQDFQGRITVTRDTSISTGYMELTRLTSTDTAVYYCARGGTITGASWYFDVWGRGTLVTVSS
VL: DIVMTQTPLSLPVTLGQPASISCRSSQSLVHSDGNTYLNWFQQRPGQSPRRLIYKVSNRDSGVPDRFSGSGSGTDFTLKISRVEAEDVGVYYCMQGTHWPQLTFGGGTKVEIKR
notes: fully human mAb
- binding result [5]: binds
